Results as given in patent publication US20070172455A1.
pKd: −log10 of the molar value.

Experiments:
[1] = molecular target: soluble form of gp130 (sgp130) (human) (UniProt P40189); assay: plate binding assay on sgp130 captured by anti-human gp130 mAb; rhuIL-6 at 500 ng/ml with sIL-6RδVal at 2 to 500 ng/ml, detected with rabbit anti-IL-6R; Scatchard plot
[2] = molecular target: gp130 on F10.9 melanoma cells (UniProt Q00560); assay: cell-based or functional assay
Sequence of gp130 on F10.9 melanoma cells (Q00560 23-917 limits assumed): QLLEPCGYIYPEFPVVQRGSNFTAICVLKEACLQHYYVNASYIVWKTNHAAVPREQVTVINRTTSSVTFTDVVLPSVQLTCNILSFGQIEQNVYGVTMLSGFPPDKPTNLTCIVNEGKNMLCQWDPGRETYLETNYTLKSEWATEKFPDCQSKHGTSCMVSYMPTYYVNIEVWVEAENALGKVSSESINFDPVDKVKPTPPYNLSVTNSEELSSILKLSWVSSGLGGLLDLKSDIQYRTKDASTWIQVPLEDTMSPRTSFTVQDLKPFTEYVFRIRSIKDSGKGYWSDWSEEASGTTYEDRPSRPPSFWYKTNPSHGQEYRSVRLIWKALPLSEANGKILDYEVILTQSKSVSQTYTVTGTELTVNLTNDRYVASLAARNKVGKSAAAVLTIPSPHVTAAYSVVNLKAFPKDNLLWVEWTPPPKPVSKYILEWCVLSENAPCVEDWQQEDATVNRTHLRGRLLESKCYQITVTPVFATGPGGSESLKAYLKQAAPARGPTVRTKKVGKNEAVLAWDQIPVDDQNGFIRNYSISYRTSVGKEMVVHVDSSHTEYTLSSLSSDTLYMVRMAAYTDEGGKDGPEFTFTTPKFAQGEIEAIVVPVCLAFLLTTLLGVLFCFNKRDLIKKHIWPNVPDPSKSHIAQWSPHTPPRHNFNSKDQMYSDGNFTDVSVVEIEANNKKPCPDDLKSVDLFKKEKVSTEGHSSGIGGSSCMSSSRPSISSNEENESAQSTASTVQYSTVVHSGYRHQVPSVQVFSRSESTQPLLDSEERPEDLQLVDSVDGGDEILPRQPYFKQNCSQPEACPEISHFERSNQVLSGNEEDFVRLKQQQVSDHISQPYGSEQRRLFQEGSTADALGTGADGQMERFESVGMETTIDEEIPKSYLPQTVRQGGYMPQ

Sequence of soluble form of gp130 (sgp130) (human) (P40189 23-619 limits assumed): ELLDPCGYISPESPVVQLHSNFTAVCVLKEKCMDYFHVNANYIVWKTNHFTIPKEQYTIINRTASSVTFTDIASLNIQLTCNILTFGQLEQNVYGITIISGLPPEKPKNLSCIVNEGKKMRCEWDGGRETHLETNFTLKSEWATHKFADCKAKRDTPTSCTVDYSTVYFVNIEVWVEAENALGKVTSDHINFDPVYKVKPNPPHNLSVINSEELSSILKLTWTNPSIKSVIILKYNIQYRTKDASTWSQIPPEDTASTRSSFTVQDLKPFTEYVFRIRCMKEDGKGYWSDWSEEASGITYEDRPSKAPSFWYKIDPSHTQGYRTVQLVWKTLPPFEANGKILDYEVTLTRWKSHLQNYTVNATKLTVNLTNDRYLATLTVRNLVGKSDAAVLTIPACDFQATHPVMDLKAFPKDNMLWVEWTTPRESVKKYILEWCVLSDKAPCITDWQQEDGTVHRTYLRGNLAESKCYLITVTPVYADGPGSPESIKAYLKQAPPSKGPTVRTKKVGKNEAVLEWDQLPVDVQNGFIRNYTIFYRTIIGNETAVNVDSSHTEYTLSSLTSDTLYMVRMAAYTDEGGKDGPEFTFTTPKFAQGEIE

pKd [1]: 9.59
maximal inhibition of F10.9 cells (growth inhibition, crystal violet, 4 days); IL-6 concentration in the mixture [2]: 7.5 nM
maximal inhibition of F10.9 cells (growth inhibition, crystal violet, 4 days); sIL-6RδVal concentration in the mixture [2]: 2 nM
Substance: mixture of human IL-6 and sIL-6R (rhuIL-6 together with human sIL-6RδVal) (from UniProt P08887 20-356; P05231 29-212)
